From patent US20140127174A1 (ZEALAND PHARMA A S, published 2014)

Columns and labels:
[1] = target: human glucagon-like peptide 1 receptor (GLP-1-R) (human, UniProt P43220 24-463); assay: cell-based or functional assay
[2] = target: human glucagon receptor (Glucagon-R) (human, UniProt P47871 26-477); assay: cell-based or functional assay

Chain of human glucagon-like peptide 1 receptor (GLP-1-R) (P43220 24-463): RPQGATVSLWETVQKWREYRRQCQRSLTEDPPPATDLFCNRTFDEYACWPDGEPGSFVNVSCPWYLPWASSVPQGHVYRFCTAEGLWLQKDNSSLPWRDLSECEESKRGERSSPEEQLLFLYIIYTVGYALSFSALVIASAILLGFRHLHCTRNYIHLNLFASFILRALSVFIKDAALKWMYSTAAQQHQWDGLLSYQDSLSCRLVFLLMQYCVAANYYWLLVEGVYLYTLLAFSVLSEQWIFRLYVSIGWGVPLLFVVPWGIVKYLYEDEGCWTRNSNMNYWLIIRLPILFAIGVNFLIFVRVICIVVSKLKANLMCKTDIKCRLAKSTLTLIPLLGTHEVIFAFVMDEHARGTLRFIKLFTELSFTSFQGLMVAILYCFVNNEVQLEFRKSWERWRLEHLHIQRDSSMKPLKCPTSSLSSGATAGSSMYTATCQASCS

- EC50 of cAMP formation in HEK293 cells expressing human GLP-1-R (corrected to a purity of 50%) [1]: 0.17 nM
- EC50 of cAMP formation in HEK293 cells expressing human Glucagon-R (corrected to a purity of 50%) [2]: 0.1 nM
Binder: H-HSQGTFTSDYSLYLDSRRAKDFIEWLERA-NH2 (not fully specified) [L006-0050 (SEQ ID NO: 12)]
